Experimental data: the supplement of paper PMC7877785
± gives the uncertainty stated by the source.

Assay: self-splicing fitness, log relative to wild type (ln ratio); higher = more splicing; Tetrahymena group I intron in knt gene, E. coli kanamycin selection, DiMSum; sequences stand for … in CUCUCU…GGAGGGAAAAGUUAUCAGGCAUGCACCUGGUAGCUAGUCUUUAAACCAAUAGAUUGCAUCGGUUUAAAAGGCAAGACCGUCAAAUUGCGGGAAAGGGGUCAACAGCCGUUCAGUACCAAGUCUCAGGGGAAACUUUGAGAUGGCCUUGCAAAGGGUAUGGUAAUAAGCUGACGGACAUGGUCCUAACCACGCAGCCAAGUCCUAAGUCAACAGAUCUUCUGUUGAUAUGGAUGCAGUUCACAGACUAAAUGUCGGUCGGGGAAGAUGUAUUCUUCUCAUAAGAUAUAGUCGGACCUCUCCUUAAUGGGAGCUAGCGGAUGAAGUGAUGCAACACUGGAGCCGCUGGGAACUAAUUUGUAUGCGAAAGUAUAUUGAUUAGUUUUGGAGUACUCGUGGUCG
Outline: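 A randomised library covering all eight P1ex-region intron nucleotides was built with the intron in the knt kanamycin-resistance gene on pET-22b(+) and held in E. coli BL21(DE3). Cells were grown overnight at 37°C or 30°C on LB agar, with or without 25 μg/mL kanamycin, plus 100 μg/mL carbenicillin, 50 μM IPTG and 0.2% rhamnose, and pooled colonies were amplicon-sequenced on an Illumina HiSeq 2500. DiMSum fitness is the error-weighted combination of wild-type-normalised replicate fold changes, kanamycin versus none.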

Sequence | self-splicing fitness (ln) (30 °C) | self-splicing fitness (ln) (37 °C)
UUGUAGCAAUAUUACGACAG | -0.234 ± 0.21 | -0.137 ± 0.25
UUGUAGCAAUAUUACGAUAA | -1.44 ± 0.11 | -0.33 ± 0.17
UUGUAGCAAUAUUACGAUGA | -0.47 ± 0.13 | 0.0216 ± 0.12
UUGUAGCAAUAUUACGAUGU | -3.86 ± 0.29 | -0.334 ± 0.12
UUGUAGCAAUAUUACGAUUC | -3.76 ± 0.34 | -3.2 ± 0.3
UUGUAGCAAUAUUACGCGUC | -3.51 ± 0.42 | -0.917 ± 0.26
UUGUAGCAAUAUUACGCUCA | -1.27 ± 0.14 | 0.0359 ± 0.18
UUGUAGCAAUAUUACGCUCC | -2.12 ± 0.43 | –
UUGUAGCAAUAUUACGGAAG | -3.94 ± 0.33 | -1.7 ± 0.36
UUGUAGCAAUAUUACGGAUA | -2.68 ± 0.24 | -1.42 ± 0.23
UUGUAGCAAUAUUACGGGGG | -2.82 ± 0.41 | –
UUGUAGCAAUAUUACGGUAA | -1.2 ± 0.16 | -0.727 ± 0.13
UUGUAGCAAUAUUACGGUAU | -0.659 ± 0.35 | –
UUGUAGCAAUAUUACGGUGG | -1.75 ± 0.12 | -1.28 ± 0.17
UUGUAGCAAUAUUACGUAAC | – | -2.12 ± 0.43
UUGUAGCAAUAUUACGUCGA | -0.938 ± 0.088 | -0.226 ± 0.11
UUGUAGCAAUAUUACGUGGG | -4.04 ± 0.46 | -2.06 ± 0.24
UUGUAGCAAUAUUACGUUCG | -0.926 ± 0.14 | -0.622 ± 0.16
UUUAAGCAAUAUUACGAAGA | -2.77 ± 0.27 | -1.33 ± 0.21
UUUAAGCAAUAUUACGACAA | -0.409 ± 0.098 | -0.304 ± 0.12
UUUAAGCAAUAUUACGACCA | -0.979 ± 0.27 | -0.376 ± 0.24
UUUAAGCAAUAUUACGACCG | -0.889 ± 0.18 | 0.563 ± 0.26
UUUAAGCAAUAUUACGAGAG | -1.49 ± 0.11 | -1.13 ± 0.12
UUUAAGCAAUAUUACGAUUG | -1.36 ± 0.15 | -1.12 ± 0.16
UUUAAGCAAUAUUACGCGAA | -1.43 ± 0.12 | -0.145 ± 0.15
UUUAAGCAAUAUUACGCGAG | -0.722 ± 0.11 | 0.0933 ± 0.13
UUUAAGCAAUAUUACGCGUU | -2.79 ± 0.19 | -2.51 ± 0.23

Sequence | self-splicing fitness (ln) (30 °C) | self-splicing fitness (ln) (37 °C)
UUUAAGCAAUAUUACGCUGG | -2.26 ± 0.21 | -0.317 ± 0.18
UUUAAGCAAUAUUACGGACA | -0.552 ± 0.17 | -0.126 ± 0.16
UUUAAGCAAUAUUACGGACU | -1.59 ± 0.14 | -0.921 ± 0.13
UUUAAGCAAUAUUACGGAGG | -2.95 ± 0.22 | -2.18 ± 0.27
UUUAAGCAAUAUUACGGCUC | -1.82 ± 0.17 | -0.633 ± 0.2
UUUAAGCAAUAUUACGGGCG | -0.49 ± 0.13 | 0.635 ± 0.21
UUUAAGCAAUAUUACGUACU | -1.14 ± 0.12 | -0.327 ± 0.14
UUUAAGCAAUAUUACGUAGC | – | -2.34 ± 0.36
UUUAAGCAAUAUUACGUCCG | -1.17 ± 0.22 | 0.606 ± 0.21
UUUCAGCAAUAUUACGAAAG | -3.23 ± 0.24 | -1.87 ± 0.22
UUUCAGCAAUAUUACGAAUU | -1.67 ± 0.081 | -0.87 ± 0.12
UUUCAGCAAUAUUACGACAC | -2.24 ± 0.16 | -2.97 ± 0.22
UUUCAGCAAUAUUACGACCU | -1.28 ± 0.25 | -0.834 ± 0.43
UUUCAGCAAUAUUACGAGGA | -0.995 ± 0.18 | -0.121 ± 0.22
UUUCAGCAAUAUUACGAGUU | -2.96 ± 0.25 | -2.06 ± 0.19
UUUCAGCAAUAUUACGAUAA | 0.592 ± 0.13 | 0.707 ± 0.15
UUUCAGCAAUAUUACGAUCU | -2.25 ± 0.19 | -0.561 ± 0.17
UUUCAGCAAUAUUACGAUUA | 0.327 ± 0.096 | 0.0465 ± 0.088
UUUCAGCAAUAUUACGCAAC | -3.51 ± 0.28 | -1.8 ± 0.22
UUUCAGCAAUAUUACGCACA | -0.372 ± 0.12 | 0.127 ± 0.15
UUUCAGCAAUAUUACGCCGA | – | -0.923 ± 0.44
UUUCAGCAAUAUUACGGAAA | -2.7 ± 0.47 | -2.07 ± 0.22
UUUCAGCAAUAUUACGGAAU | -3.77 ± 0.23 | -2 ± 0.2
UUUCAGCAAUAUUACGGGUA | -0.909 ± 0.1 | -0.337 ± 0.12
UUUCAGCAAUAUUACGGUAU | -3.02 ± 0.19 | -1.67 ± 0.15
UUUCAGCAAUAUUACGGUUU | -0.595 ± 0.073 | -0.244 ± 0.092
UUUCAGCAAUAUUACGUCCC | -1.43 ± 0.39 | -0.811 ± 0.4

Sequence | self-splicing fitness (ln) (30 °C) | self-splicing fitness (ln) (37 °C)
UUUCAGCAAUAUUACGUCCG | -1.59 ± 0.14 | -1 ± 0.21
UUUCAGCAAUAUUACGUCCU | -2.99 ± 0.42 | -1.32 ± 0.28
UUUCAGCAAUAUUACGUGCA | -0.77 ± 0.13 | 0.0542 ± 0.17
UUUCAGCAAUAUUACGUGCG | -1.27 ± 0.12 | 0.0636 ± 0.11
UUUGAGCAAUAUUACGACGG | -0.966 ± 0.16 | -0.751 ± 0.23
UUUGAGCAAUAUUACGAUAG | -2.09 ± 0.19 | -1.87 ± 0.23
UUUGAGCAAUAUUACGAUGA | -0.96 ± 0.19 | -0.161 ± 0.21
UUUGAGCAAUAUUACGCGCG | -1.85 ± 0.13 | -0.956 ± 0.19
UUUGAGCAAUAUUACGCGUA | – | 0.0632 ± 0.24
UUUGAGCAAUAUUACGCUCA | -3.33 ± 0.41 | -1.6 ± 0.41
UUUGAGCAAUAUUACGCUCG | -3.8 ± 0.4 | -2.01 ± 0.34
UUUGAGCAAUAUUACGCUGC | -3.12 ± 0.47 | –
UUUGAGCAAUAUUACGGACA | – | -2.57 ± 0.48
UUUGAGCAAUAUUACGGACG | -2.51 ± 0.24 | -2.71 ± 0.31
UUUGAGCAAUAUUACGGCAA | -1.72 ± 0.18 | -0.742 ± 0.22
UUUGAGCAAUAUUACGGCCA | – | -1.17 ± 0.46
UUUGAGCAAUAUUACGGUAG | -2.82 ± 0.39 | -2.41 ± 0.36
UUUGAGCAAUAUUACGGUGA | -2.07 ± 0.15 | -2.46 ± 0.18
UUUGAGCAAUAUUACGGUUA | -2 ± 0.17 | -1.57 ± 0.15
UUUGAGCAAUAUUACGUAAA | -1.16 ± 0.15 | -1.45 ± 0.2
UUUGAGCAAUAUUACGUAAG | -1.29 ± 0.056 | -0.487 ± 0.078
UUUGAGCAAUAUUACGUAGG | -2.52 ± 0.16 | -1.32 ± 0.23
UUUGAGCAAUAUUACGUAUU | -3.89 ± 0.27 | -2.46 ± 0.21
UUUGAGCAAUAUUACGUUUG | -3.29 ± 0.26 | -2 ± 0.31
UUUUAGCAAUAUUACGAAAG | -2.72 ± 0.2 | -0.437 ± 0.15
